Columns and labels:
HeLa Kyoto [1] = experiment: thermal stability score vs G1/S (z-score of summed log2 fold changes over temperatures); higher = more thermally stable than in G1/S
HeLa Kyoto [2] = experiment: melting temperature (median over replicates), in situ; higher = more thermally stable
HeLa Kyoto [3] = experiment: solubility in G1/S (NP-40 vs SDS abundance) (log2 ratio); higher = more soluble; details: cell cycle stage: G1/S
HeLa Kyoto [4] = experiment: solubility change mitosis vs G1/S (difference of NP-40 vs SDS log2 ratios) (log2 ratio difference); higher = more soluble in mitosis
[5] = cell cycle stage: early G1 (4.5 h after nocodazole release)
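Throughout, for melting temperature (median over replicates), in situ: HeLa Kyoto cells synchronized by double thymidine or nocodazole block, proteins quantified by TMT10plex mass spectrometry, three independent biological replicates.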
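Throughout, for solubility change mitosis vs G1/S (difference of NP-40 vs SDS log2 ratios): synchronized HeLa Kyoto cells (double thymidine block for G1/S, nocodazole release for mitosis), protein amounts in NP-40 versus SDS lysates quantified by mass spectrometry, three biological replicates.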
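Throughout, for solubility in G1/S (NP-40 vs SDS abundance): HeLa Kyoto cells arrested at G1/S by double thymidine block, proteins quantified by TMT10plex mass spectrometry in mild NP-40 versus SDS extracts, three biological replicates.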
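Throughout, for thermal stability score vs G1/S (z-score of summed log2 fold changes over temperatures): synchronized HeLa Kyoto cells, proteins quantified by TMT10plex mass spectrometry, three biological replicates, mitosis taken 0.5 h after nocodazole release, G1/S directly after double thymidine block.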

Sequence	thermal stability score (HeLa Kyoto [1]; [5])	thermal stability score (HeLa Kyoto [1]; cell cycle stage: mitosis)	melting temperature (HeLa Kyoto [2]; cell cycle stage: G1/S) [°C]	melting temperature (HeLa Kyoto [2]; cell cycle stage: mitosis) [°C]	solubility in G1/S (log2) (HeLa Kyoto [3])	solubility change mitosis (log2) (HeLa Kyoto [4])
MAEPFLSEYQHQPQTSNCTGAAAVQEELNPERPPGAEERVPEEDSRWQSRAFPQLGGRPGPEGEGSLESQPPPLQTQACPESSCLREGEKGQNGDDSSAGGDFPPPAEVEPTPEAELLAQPCHDSEASKLGAPAAGGEEEWGQQQRQLGKKKHRRRPSKKKRHWKPYYKLTWEEKKKFDEKQSLRASRIRAEMFAKGQPVAPYNTTQFLMDDHDQEEPDLKTGLYSKRAAAKSDDTSDDDFMEEGGEEDGGSDGMGGDGSEFLQRDFSETYERYHTESLQNMSKQELIKEYLELEKCLSRMEDENNRLRLESKRLGGDDARVRELELELDRLRAENLQLLTENELHRQQERAPLSKFGD [HEXIM1]	-4.2	-2.03	57.6	55.5	0.211	0.123
MAEPTVCSFLTKVLCAHGGRMFLKDLRGHVELSEARLRDVLQRAGPERFLLQEVETQEGLGDAEAEAAAGAVGGGGTSAWRVVAVSSVRLCARYQRGECQACDQLHFCRRHMLGKCPNRDCWSTCTLSHDIHTPVNMQVLKSHGLFGLNENQLRILLLQNDPCLLPEVCLLYNKGEALYGYCNLKDKCNKFHVCKSFVKGECKLQTCKRSHQLIHAASLKLLQDQGLNIPSVVNFQIISTYKHMKLHKMLENTDNSSPSTEHSQGLEKQGVHAAGAAEAGPLASVPAQSAKKPCPVSCEK [ZC3HAV1L]	0.166	-0.0104	50.2	50.2	0.135	-0.0672
MAEQATKSVLFVCLGNICRSPIAEAVFRKLVTDQNISENWRVDSAATSGYEIGNPPDYRGQSCMKRHGIPMSHVARQITKEDFATFDYILCMDESNLRDLNRKSNQVKTCKAKIELLGSYDPQKQLIIEDPYYGNDSDFETVYQQCVRCCRAFLEKAH [ACP1]	-0.241	-0.21	50.2	51	0.178	-0.0468
MAEQLSPGKAVDQVCTFLFKKPGRKGAAGRRKRPACDPEPGESGSSSDEGCTVVRPEKKRVTHNPMIQKTRDSGKQKAAYGDLSSEEEEENEPESLGVVYKSTRSAKPVGPEDMGATAVYELDTEKERDAQAIFERSQKIQEELRGKEDDKIYRGINNYQKYMKPKDTSMGNASSGMVRKGPIRAPEHLRATVRWDYQPDICKDYKETGFCGFGDSCKFLHDRSDYKHGWQIERELDEGRYGVYEDENYEVGSDDEEIPFKCFICRQSFQNPVVTKCRHYFCESCALQHFRTTPRCYVCDQQTNGVFNPAKELIAKLEKHRATGEGGASDLPEDPDEDAIPIT [RNF113A]	-3.12	-4.15	55.6	63.5	0.17	0.0489
MAERGGDGGESERFNPGELRMAQQQALRFRGPAPPPNAVMRGPPPLMRPPPPFGMMRGPPPPPRPPFGRPPFDPNMPPMPPPGGIPPPMGPPHLQRPPFMPPPMSSMPPPPGMMFPPGMPPVTAPGTPALPPTEEIWVENKTPDGKVYYYNARTRESAWTKPDGVKVIQQSELTPMLAAQAQVQAQAQAQAQAQAQAQAQAQAQAQAQAQAQAQAQAQAQAQAQAQAQAQAQAQAQAQAQAQVQAQVQAQVQAQAVGASTPTTSSPAPAVSTSTSSSTPSSTTSTTTTATSVAQTVSTPTTQDQTPSSAVSVATPTVSVSTPAPTATPVQTVPQPHPQTLPPAVPHSVPQPTTAIPAFPPVMVPPFRVPLPGMPIPLPGVAMMQIVSCPYVKTVATTKTGVLPGMAPPIVPMIHPQVAIAASPATLAGATAVSEWTEYKTADGKTYYYNNRTLESTWEKPQELKEKEKLEEKIKEPIKEPSEEPLPMETEEEDPKEEPIKEIKEEPKEEEMTEEEKAAQKAKPVATAPIPGTPWCVVWTGDERVFFYNPTTRLSMWDRPDDLIGRADVDKIIQEPPHKKGMEELKKLRHPTPTMLSIQKWQFSMSAIKEEQELMEEINEDEPVKAKKRKRDDNKDIDSEKEAAMEAEIKAARERAIVPLEARMKQFKDMLLERGVSAFSTWEKELHKIVFDPRYLLLNPKERKQVFDQYVKTRAEEERREKKNKIMQAKEDFKKMMEEAKFNPRATFSEFAAKHAKDSRFKAIEKMKDREALFNEFVAAARKKEKEDSKTRGEKIKSDFFELLSNHHLDSQSRWSKVKDKVESDPRYKAVDSSSMREDLFKQYIEKIAKNLDSEKEKELERQARIEASLREREREVQKARSEQTKEIDREREQHKREEAIQNFKALLSDMVRSSDVSWSDTRRTLRKDHRWESGSLLEREEKEKLFNEHIEALTKKKREHFRQLLDETSAITLTSTWKEVKKIIKEDPRCIKFSSSDRKKQREFEEYIRDKYITAKADFRTLLKETKFITYRSKKLIQESDQHLKDVEKILQNDKRYLVLDCVPEERRKLIVAYVDDLDRRGPPPPPTASEPTRRSTK [TCERG1]	2.7	5.16	48.5	48.8	0.0535	-0.0317
MAERQEEQRGSPPLRAEGKADAEVKLILYHWTHSFSSQKVRLVIAEKALKCEEHDVSLPLSEHNEPWFMRLNSTGEVPVLIHGENIICEATQIIDYLEQTFLDERTPRLMPDKESMYYPRVQHYRELLDSLPMDAYTHGCILHPELTVDSMIPAYATTRIRSQIGNTESELKKLAEENPDLQEAYIAKQKRLKSKLLDHDNVKYLKKILDELEKVLDQVETELQRRNEETPEEGQQPWLCGESFTLADVSLAVTLHRLKFLGFARRNWGNGKRPNLETYYERVLKRKTFNKVLGHVNNILISAVLPTAFRVAKKRAPKVLGTTLVVGLLAGVGYFAFMLFRKRLGSMILAFRPRPNYF [GDAP1]	1.45	1.45	54	52	-0.194	-0.1
